Reference: paper PMC3326523, “Histone Recognition and Large-Scale Structural Analysis of the Human Bromodomain Family” (Cell, 2012)
Values belong to the substance of their own block, whether it stands above or below them.

What was measured:
[1] = biological target: CECR2 bromodomain (human) (UniProt Q9BXF3); assay: ITC; peptide (mM stock) titrated into bromodomain (about 50 μM), by the concentrations in the tables; 10 or 15°C, 50 mM HEPES pH 7.5, 150 mM NaCl; single binding site model
[2] = biological target: TAF1(1/2), tandem bromodomains of TAF1 (human) (UniProt P21675); assay: as above
[3] = biological target: BAZ2B bromodomain (human) (UniProt Q9UIF8); assay: as above
PCAF bromodomain (human) = PCAF bromodomain (human) (UniProt Q92831); assay: as above
[4] = biological target: SMARCA2 bromodomain (human) (UniProt P51531); assay: as above
[5] = biological target: TAF1(2), second bromodomain of TAF1 (human) (UniProt P21675); assay: as above
[6] = biological target: CREBBP bromodomain (human) (UniProt Q92793); assay: as above
[7] = biological target: BRD3(1), first bromodomain of BRD3 (human) (UniProt Q15059); assay: as above
[8] = biological target: KIAA1240 bromodomain (human) (UniProt Q9ULI0); assay: as above
[9] = biological target: BRD3(1), first bromodomain of BRD3 (human) (UniProt Q15059); assay: ITC; as a1; rows with N of about 0.5 or 0.25: two or more bromodomains on one peptide, apparent binding constants, events not deconvoluted
[10] = biological target: BRD3(2), second bromodomain of BRD3 (human) (UniProt Q15059); assay: as above
[11] = biological target: H3K14ac peptide (ITC) (human); assay: ITC; VP-ITC or ITC200, 10 or 15°C, 50 mM HEPES pH 7.5, 150 mM NaCl; in most cases single binding site model
[12] = biological target: H3pS10K14acK18ac peptide (ITC) (human); assay: as above
EP300 bromodomain = EP300 bromodomain (UniProt Q09472); assay: SPOT peptide array, His6-BRD overlay; conditions: reference: H3K4acK9ac peptide; sites T3
[13] = biological target: WDR9 second bromodomain, WDR9(2) (UniProt Q9NSI6); assay: SPOT peptide array, His6-BRD overlay; conditions: reference: H3K4acK9ac peptide; sites T3

Sequence of TAF1(1/2), tandem bromodomains of TAF1 (human) (P21675 whole entry): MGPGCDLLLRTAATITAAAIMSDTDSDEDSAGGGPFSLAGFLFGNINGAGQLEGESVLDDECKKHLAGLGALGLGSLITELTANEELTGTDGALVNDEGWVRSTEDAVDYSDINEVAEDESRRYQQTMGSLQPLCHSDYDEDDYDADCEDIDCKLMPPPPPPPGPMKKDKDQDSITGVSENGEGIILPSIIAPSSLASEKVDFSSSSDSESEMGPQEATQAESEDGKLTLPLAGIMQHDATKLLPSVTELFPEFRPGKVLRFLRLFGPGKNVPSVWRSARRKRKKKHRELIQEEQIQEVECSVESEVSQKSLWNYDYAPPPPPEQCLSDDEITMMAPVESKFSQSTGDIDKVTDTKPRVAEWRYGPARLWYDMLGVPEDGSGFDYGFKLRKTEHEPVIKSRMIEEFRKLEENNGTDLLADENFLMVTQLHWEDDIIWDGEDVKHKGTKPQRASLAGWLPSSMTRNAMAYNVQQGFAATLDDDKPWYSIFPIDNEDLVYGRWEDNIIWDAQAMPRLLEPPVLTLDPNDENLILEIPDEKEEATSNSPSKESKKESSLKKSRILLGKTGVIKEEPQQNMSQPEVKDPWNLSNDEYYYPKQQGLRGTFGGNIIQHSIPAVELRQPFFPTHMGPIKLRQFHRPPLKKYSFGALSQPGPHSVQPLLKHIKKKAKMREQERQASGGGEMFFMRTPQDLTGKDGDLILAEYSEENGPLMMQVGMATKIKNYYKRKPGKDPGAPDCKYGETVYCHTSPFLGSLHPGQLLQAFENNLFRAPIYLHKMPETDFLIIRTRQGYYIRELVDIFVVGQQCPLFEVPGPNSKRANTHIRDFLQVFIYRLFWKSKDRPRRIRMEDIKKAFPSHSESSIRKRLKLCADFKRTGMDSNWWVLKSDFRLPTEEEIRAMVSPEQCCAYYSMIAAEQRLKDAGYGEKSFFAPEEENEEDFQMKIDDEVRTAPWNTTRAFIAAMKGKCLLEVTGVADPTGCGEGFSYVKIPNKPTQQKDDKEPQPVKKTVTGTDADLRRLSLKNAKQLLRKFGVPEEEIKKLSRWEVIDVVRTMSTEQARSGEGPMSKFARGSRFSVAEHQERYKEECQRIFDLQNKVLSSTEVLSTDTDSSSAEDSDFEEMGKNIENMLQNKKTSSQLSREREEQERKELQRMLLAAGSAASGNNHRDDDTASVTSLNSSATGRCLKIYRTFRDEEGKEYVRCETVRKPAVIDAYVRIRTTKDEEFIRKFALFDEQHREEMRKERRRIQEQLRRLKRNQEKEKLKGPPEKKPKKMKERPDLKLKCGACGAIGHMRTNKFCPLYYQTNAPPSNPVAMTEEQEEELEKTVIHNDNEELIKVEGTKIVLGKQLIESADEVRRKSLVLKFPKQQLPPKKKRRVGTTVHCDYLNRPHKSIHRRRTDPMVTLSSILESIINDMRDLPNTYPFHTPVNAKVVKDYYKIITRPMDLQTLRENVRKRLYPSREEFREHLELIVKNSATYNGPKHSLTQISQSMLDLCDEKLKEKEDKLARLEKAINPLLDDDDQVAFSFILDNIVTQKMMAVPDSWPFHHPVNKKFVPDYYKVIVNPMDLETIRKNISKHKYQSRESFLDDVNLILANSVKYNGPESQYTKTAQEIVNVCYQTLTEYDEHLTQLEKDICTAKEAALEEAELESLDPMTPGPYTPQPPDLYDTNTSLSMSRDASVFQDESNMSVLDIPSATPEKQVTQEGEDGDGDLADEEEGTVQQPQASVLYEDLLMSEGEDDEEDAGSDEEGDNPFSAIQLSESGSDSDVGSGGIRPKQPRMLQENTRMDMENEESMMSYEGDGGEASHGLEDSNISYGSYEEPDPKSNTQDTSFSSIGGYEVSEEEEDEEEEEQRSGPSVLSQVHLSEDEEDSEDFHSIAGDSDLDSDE
Sequence of BRD3(1), first bromodomain of BRD3 (human) (Q15059 whole entry): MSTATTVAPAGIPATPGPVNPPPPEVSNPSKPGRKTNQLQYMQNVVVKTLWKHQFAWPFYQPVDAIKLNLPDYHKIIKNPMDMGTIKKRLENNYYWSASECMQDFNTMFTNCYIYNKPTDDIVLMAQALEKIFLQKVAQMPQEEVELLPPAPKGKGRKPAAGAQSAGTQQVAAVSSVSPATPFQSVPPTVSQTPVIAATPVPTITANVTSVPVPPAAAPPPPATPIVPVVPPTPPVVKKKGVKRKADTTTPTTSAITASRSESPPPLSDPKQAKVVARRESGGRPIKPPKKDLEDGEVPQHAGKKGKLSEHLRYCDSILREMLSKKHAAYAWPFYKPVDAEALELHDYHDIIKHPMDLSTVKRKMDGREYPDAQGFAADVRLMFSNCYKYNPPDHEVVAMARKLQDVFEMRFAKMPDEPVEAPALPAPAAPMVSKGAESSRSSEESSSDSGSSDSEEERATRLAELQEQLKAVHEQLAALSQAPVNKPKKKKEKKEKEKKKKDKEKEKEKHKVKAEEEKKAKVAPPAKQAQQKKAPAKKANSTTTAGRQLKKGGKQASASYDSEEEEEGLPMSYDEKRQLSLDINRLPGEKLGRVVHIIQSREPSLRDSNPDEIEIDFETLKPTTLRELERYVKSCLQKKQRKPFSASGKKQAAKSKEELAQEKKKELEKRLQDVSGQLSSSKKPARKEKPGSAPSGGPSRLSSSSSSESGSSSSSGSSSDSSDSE
Sequence of bromodomain of CREBBP, tag removed (ITC) (Q92793 1081-1197): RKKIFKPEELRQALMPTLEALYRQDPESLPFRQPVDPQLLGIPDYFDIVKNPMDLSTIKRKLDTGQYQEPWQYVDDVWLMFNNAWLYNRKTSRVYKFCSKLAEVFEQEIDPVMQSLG
Sequence of BAZ2B bromodomain (human) (Q9UIF8 whole entry): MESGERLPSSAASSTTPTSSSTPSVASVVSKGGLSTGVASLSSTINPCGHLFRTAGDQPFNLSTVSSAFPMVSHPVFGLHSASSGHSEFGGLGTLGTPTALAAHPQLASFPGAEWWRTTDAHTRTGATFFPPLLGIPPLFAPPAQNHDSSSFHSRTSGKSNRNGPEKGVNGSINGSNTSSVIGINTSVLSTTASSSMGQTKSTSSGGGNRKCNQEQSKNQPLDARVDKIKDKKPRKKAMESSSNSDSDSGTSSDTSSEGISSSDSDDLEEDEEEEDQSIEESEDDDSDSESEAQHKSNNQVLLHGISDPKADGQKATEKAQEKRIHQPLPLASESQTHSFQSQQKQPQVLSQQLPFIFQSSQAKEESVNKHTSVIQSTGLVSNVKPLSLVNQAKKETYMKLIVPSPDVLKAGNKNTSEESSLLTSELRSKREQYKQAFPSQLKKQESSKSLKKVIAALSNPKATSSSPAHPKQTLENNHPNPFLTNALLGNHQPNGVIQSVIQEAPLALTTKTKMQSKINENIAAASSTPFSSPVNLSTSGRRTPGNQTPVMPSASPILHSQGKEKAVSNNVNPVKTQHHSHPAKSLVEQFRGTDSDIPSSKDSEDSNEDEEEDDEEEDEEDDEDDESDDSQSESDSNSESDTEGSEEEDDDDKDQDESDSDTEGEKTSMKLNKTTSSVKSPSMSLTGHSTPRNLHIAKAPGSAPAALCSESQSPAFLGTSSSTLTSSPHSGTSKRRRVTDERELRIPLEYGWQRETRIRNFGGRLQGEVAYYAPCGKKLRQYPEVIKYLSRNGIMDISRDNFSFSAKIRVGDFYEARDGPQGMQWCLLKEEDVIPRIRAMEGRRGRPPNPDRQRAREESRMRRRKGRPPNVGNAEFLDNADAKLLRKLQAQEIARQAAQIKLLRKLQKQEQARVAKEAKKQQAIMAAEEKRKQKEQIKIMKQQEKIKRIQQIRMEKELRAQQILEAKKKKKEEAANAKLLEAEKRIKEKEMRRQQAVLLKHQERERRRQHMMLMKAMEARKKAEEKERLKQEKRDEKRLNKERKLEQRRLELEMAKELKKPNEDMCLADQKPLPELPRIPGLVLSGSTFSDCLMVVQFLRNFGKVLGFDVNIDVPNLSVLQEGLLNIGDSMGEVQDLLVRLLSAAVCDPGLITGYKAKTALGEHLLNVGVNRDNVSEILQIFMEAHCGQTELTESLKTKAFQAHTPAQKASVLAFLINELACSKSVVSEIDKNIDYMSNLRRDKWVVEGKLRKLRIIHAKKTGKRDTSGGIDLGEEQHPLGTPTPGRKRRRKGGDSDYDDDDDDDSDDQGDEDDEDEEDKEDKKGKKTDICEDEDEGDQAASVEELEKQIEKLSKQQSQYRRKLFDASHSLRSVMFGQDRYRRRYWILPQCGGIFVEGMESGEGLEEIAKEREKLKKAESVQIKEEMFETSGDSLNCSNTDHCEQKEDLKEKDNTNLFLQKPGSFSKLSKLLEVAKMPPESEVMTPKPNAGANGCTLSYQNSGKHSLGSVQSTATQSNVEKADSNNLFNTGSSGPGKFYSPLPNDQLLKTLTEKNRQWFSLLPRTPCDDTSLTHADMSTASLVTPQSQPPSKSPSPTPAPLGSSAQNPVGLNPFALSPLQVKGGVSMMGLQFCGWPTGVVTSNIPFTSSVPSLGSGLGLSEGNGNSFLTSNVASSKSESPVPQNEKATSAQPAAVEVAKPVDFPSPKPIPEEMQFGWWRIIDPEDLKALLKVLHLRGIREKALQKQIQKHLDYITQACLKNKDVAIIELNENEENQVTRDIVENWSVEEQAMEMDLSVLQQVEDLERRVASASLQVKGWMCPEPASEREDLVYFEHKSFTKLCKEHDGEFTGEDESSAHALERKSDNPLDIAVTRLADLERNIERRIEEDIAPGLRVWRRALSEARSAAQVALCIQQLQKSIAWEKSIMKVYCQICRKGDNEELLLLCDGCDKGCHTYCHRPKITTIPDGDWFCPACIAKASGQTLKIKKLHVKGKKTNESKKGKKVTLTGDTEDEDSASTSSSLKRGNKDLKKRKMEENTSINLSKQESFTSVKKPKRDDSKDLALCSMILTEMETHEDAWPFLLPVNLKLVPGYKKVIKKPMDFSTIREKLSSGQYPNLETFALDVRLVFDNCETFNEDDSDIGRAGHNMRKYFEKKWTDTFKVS
Sequence of CECR2 bromodomain (human) (Q9BXF3 424-538): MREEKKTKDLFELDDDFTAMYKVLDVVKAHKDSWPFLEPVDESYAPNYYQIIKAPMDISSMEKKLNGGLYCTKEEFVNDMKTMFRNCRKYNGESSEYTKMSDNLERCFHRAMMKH
Sequence of CREBBP bromodomain (human) (Q92793 1081-1197): as the sequence (Q92793 1081-1197) above
Sequence of TAF1(2), second bromodomain of TAF1 (human) (P21675 whole entry): as the sequence (P21675 whole entry) above

Substance: H3K9/S10/K14 peptide KQTARKacpSTGGKacAPRKQY
Kd [2]: 150 µM | stoichiometry N [2]: 1.05

Substance: H4K8 peptide RGKGGKacGLGKGY
Kd [7]: 211 µM | stoichiometry N [7]: 1 | stoichiometry N [8]: 1

Substance: H4K12/16/20 peptide GKacGGAKacRHRKacV
Kd [9]: 31.4 µM | stoichiometry N [9]: 0.51 | stoichiometry N [10]: 0.5

Substance: bromodomain of CREBBP, tag removed (ITC) (from UniProt Q92793 1081-1197) (domain or fragment)
Kd [11]: 733 µM | Kd [12]: 131 µM

Substance: histone H3 N-terminal tail (from UniProt P68431) H3 pT3K4acK9ac peptide
binding against the reference (EP300 bromodomain): gained | binding against the reference [13]: gained

More lines, now with the values ahead:

stoichiometry N [1]: 1
Substance: H3K9 peptide KQTARKacSTGGKY

Kd [2]: 339 µM | stoichiometry N [2]: 1.02
Substance: H3K9/K14 peptide KQTARKacSTGGKacAPRKQY

Kd [3]: 7.6 µM | stoichiometry N [3]: 1 | stoichiometry N [1]: 1 | stoichiometry N (PCAF bromodomain (human)): 1.01 | stoichiometry N [4]: 1.05 | Kd [2]: 179 µM | stoichiometry N [2]: 1.01 | Kd [5]: 306 µM
Substance: H3K14 peptide KSTGGKacAPRKQY

stoichiometry N [6]: 1
Substance: H3S10K14K18 peptide KpSTGGKacAPRKacQY
